Results published in PMC7098639.

Tests used:
Assay in all cases: FRET or BRET; biosensor lysate at three concentrations (200,000, 400,000 and 800,000 RLU) incubated with VEGF ranges adjusted for each biosensor; Delta eBRET2 ratio against the biosensor without VEGF
[1] = molecular target: eBRET2 VEGF biosensor Re07 (Rluc8 - VEGF receptor 2 domains 2 and 3 - GFP2) (human)
[2] = molecular target: eBRET2 VEGF biosensor Re09 (Rluc8 - VEGF receptor 1 domain 2 - VEGF receptor 2 domain 3 - GFP2) (human)
[3] = molecular target: eBRET2 VEGF biosensor Re02 (Rluc8 - VEGF receptor 1 domain 3 - GFP2) (human)
Chain of eBRET2 VEGF biosensor Re02 (Rluc8 - VEGF receptor 1 domain 3 - GFP2) (human) (P17948 27-758): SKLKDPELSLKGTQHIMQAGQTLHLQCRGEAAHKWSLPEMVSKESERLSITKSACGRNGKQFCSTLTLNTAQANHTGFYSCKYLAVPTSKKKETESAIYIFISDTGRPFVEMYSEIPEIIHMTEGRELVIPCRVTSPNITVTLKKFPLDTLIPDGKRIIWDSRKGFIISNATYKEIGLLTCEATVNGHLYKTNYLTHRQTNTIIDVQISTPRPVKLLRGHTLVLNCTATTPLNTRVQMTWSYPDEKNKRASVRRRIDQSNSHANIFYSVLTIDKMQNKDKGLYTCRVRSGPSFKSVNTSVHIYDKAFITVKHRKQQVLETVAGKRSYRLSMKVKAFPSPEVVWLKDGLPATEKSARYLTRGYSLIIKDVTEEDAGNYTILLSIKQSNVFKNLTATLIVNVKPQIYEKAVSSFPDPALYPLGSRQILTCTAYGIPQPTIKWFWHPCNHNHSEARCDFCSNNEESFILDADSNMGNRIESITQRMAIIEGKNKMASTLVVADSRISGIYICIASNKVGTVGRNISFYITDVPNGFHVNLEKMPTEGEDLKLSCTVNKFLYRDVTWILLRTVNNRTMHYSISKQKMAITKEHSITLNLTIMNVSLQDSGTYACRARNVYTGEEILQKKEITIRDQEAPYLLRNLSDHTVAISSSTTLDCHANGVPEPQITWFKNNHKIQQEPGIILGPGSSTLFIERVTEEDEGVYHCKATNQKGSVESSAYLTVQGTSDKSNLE

[4] = molecular target: eBRET2 VEGF biosensor Re06 (Rluc8 - VEGF receptor 2 domain 3 - GFP2) (human)
Chain of eBRET2 VEGF biosensor Re06 (Rluc8 - VEGF receptor 2 domain 3 - GFP2) (human) (P35968 20-764): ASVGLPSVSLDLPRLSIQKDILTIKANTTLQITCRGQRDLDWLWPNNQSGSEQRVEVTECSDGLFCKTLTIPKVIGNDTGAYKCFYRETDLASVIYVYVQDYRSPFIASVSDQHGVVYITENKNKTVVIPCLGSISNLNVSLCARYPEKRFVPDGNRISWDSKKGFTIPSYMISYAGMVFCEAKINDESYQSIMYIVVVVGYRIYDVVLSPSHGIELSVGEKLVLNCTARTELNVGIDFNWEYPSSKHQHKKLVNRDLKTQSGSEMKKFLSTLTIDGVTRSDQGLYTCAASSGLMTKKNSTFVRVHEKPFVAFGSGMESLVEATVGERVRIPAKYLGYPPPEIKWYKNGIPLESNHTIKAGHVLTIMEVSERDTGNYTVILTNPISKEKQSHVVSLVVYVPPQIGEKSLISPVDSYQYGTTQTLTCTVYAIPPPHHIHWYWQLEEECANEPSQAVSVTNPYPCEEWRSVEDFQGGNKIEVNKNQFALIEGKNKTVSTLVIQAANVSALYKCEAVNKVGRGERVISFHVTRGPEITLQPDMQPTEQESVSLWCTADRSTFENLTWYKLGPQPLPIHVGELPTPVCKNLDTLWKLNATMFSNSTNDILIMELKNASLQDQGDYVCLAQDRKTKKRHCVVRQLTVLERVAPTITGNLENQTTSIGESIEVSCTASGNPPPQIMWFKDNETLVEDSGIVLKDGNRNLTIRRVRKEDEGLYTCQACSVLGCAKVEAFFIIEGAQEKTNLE

Chain of eBRET2 VEGF biosensor Re07 (Rluc8 - VEGF receptor 2 domains 2 and 3 - GFP2) (human) (P35968 20-764): as above

“recombinant human VEGF (Active Max VEGF-A165) (ligand)” was tested. Which maximum Delta eBRET2 ratio (ΔBR) at 4 ng/ml VEGF, biosensor at 400,000 RLU [1] did it give?
The maximum Delta eBRET2 ratio (ΔBR) at 4 ng/ml VEGF, biosensor at 400,000 RLU was 27.7 mBU.

And the maximum Delta eBRET2 ratio (ΔBR) at 1 μg/ml VEGF, biosensor at 200,000 RLU [2]?
The maximum Delta eBRET2 ratio (ΔBR) at 1 μg/ml VEGF, biosensor at 200,000 RLU was 62.6 mBU.

And the maximum Delta eBRET2 ratio (ΔBR) at 1 μg/ml VEGF, biosensor at 800,000 RLU [2]?
Its maximum Delta eBRET2 ratio (ΔBR) at 1 μg/ml VEGF, biosensor at 800,000 RLU is 100 mBU.

And the Delta eBRET2 ratio (ΔBR) at 0.1 ng/ml VEGF, biosensor at 200,000 RLU [3]?
The Delta eBRET2 ratio (ΔBR) at 0.1 ng/ml VEGF, biosensor at 200,000 RLU was 2.95 mBU.

And the Delta eBRET2 ratio (ΔBR) at 100 ng/ml VEGF, biosensor at 200,000 RLU [3]?
The Delta eBRET2 ratio (ΔBR) at 100 ng/ml VEGF, biosensor at 200,000 RLU was 42.5 mBU.

What about the Delta eBRET2 ratio (ΔBR) at 1000 pg/ml VEGF, biosensor at 200,000 RLU [4] of the same substance?
The Delta eBRET2 ratio (ΔBR) at 1000 pg/ml VEGF, biosensor at 200,000 RLU was 41 mBU.

What about the maximum Delta eBRET2 ratio (ΔBR) at 1000 pg/ml VEGF, biosensor at 400,000 RLU [4] of the same substance?
Its maximum Delta eBRET2 ratio (ΔBR) at 1000 pg/ml VEGF, biosensor at 400,000 RLU is 106 mBU.
